The record followed here is US20230192839A1 (published 2023).

Substitutions are numbered along the chain they refer to.

Assay [1] concerns the target T1, human CD33 antigen (human, UniProt P20138 18-259, limits assumed).
T1 construct: whole entry named; also called Siglec-3
The assay can be described thus: SPR (Biacore T200), 37 C, scFv-Fc, 0 uM MTX. The procedure:
(§1) All binding kinetics analysis was performed on label-free Biacore surface plasmon biosensors (Biacore T200™ from GE Life Sciences) at 37° C. in 10 mM Hepes pH 7.4, 150 mM NaCl, 0.05% Tween-20 (HBST+), with or without 10 µM MTX. The Biacore data were processed in Biacore T200 Evaluation Software, and the data were double-referenced (Myszka, 1999, J Mol Recognit 12(5):279-284) and fit globally to a simple Langmuir with mass transport model to determine the equilibrium dissociation constant, KD, from the ratio of the kinetic rate constants (KD = koff/kₒₙ). In some cases the binding of antigen was very low (or not detectable) in the presence of 10 µM MTX and as a result kinetic rate constants could not be accurately determined. In these cases, a KD (or KD limit) was estimated based on the binding response at the highest analyte concentration tested or based on the typical limit of detection for a Biacore T200.
For orientation: Surface plasmon resonance follows binding to a sensor surface in real time, without labels.

Assay [2] concerns the target T1, human CD33 antigen. Briefly: SPR (Biacore T200), 37 C; KD at 10 uM MTX / KD at 0 uM MTX. The procedure: as §1
Assay [3] has as its target T1, human CD33 antigen. The assay can be described thus: SPR (Biacore T200), 37 C, scFv-Fc, 10 uM MTX. The procedure: as §1
“*”: For interactions where kₒₙ and koff are reported, the KD was calculated using koff/kₒₙ.

T1 sequence (P20138 18-259 limits assumed): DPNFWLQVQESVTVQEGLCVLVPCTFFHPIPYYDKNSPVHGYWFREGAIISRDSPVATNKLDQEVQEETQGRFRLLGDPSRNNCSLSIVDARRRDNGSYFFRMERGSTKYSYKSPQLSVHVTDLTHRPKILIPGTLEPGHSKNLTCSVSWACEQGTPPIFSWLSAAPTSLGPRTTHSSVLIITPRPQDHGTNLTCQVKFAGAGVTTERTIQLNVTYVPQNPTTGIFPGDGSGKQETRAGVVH

B1: P02_D08 scFv-Fc fusion (scFv, V domains shown)
VH: QVQLVESGGGLVQAGGSLRLSCAASRRSSRSWAMHWVRQAPGKGLEWVAVISYDGRLKYYADSVKGRFTISRDNAEYLVYLQMNSLRAEDTAVYYCAAERGDGLDGNVGLDIWGQGTLVTVSS
VL: DIQMTQSPSSLSASVGDRVTITCRASQSISKYLNWYQQKPGKAPKLLIYGASTLQSGVPSRFSGSGSGTDFTLTISSLQPEDFATYYCQQSYSSGTFGQGTKVEIK
notes: Tested as scFv-Fc fusion
As usually defined, the Kd is the constant that tells how readily two partners part at equilibrium. What is called koff is a measure of how fast the partners let go of each other. Read a high koff as fast dissociation. A word on the kon: it is the rate constant with which the complex forms. For the molecule B1, in the assay with human CD33 antigen [1], the Kd came to 100 nM, the koff was determined as 0.0061 s⁻¹ and the kon stood at 61000 M⁻¹ s⁻¹. Besides, the “Ratio: KD with MTX / KD without MTX” value with human CD33 antigen [2] was found to be 7.1. In the assay with human CD33 antigen [3], the Kd amounted to 705 nM, the off-rate constant (koff) stood at 0.062 s⁻¹ and the on-rate constant (kon) amounted to 88000 M⁻¹ s⁻¹.

B2: P08_C08 scFv-Fc fusion (scFv, V domains shown)
VH: B1 VH with R100G, G101S, D102G, G103S, L104T, N107S, V108G, G109A, L110I, I112V
VL: B1 VL with S30G, K31S, G50A, T53S, T96S
notes: Tested as scFv-Fc fusion
In the case of B2, in the assay with human CD33 antigen [1], the Kd came to 72 nM, the koff amounted to 0.0045 s⁻¹ and the kon is 63000 M⁻¹ s⁻¹. The “Ratio: KD with MTX / KD without MTX” value with human CD33 antigen [2] came out at 7.6. In the assay with human CD33 antigen [3], this molecule displayed a Kd of 547 nM, a koff of 0.051 s⁻¹ and a kon of 94000 M⁻¹ s⁻¹.

B3: P01_B02 scFv-Fc fusion (scFv, V domains shown)
VH: QVQLVESGGGLVQAGGSLRLSCAASRRSSRSWAMHWVRQAPGKGLEWVAVISYDGRLKYYADSVKGRFTISRDNAEYLVYLQMNSLRAEDTAVYYCAAADWYSGGGDALDIWGQGTLVTVSS
VL: B1 VL with S28T, S30Y, K31N, T53N, S91T, G95P
notes: Tested as scFv-Fc fusion
B3: in the assay with human CD33 antigen [1], the Kd stood at 19 nM, the koff is 0.0026 s⁻¹ and the kon was determined as 140000 M⁻¹ s⁻¹. Moreover, the “Ratio: KD with MTX / KD without MTX” value with human CD33 antigen [2] came to 0.1. Moreover, in the assay with human CD33 antigen [3], binding was put at a Kd of 1.6 nM, the koff amounted to 0.0006 s⁻¹ and the kon was determined as 390000 M⁻¹ s⁻¹.

B4: P07_C04 scFv-Fc fusion (scFv, V domains shown)
VH: B3 VH with A99E, D100P, W101D, Y102G, S103E, G105T, G106N, D107G, A108G
VL: B1 VL with S28N, K31R, G50S, T53S, S56T, T96A
notes: Tested as scFv-Fc fusion
Turning to B4, in the assay with human CD33 antigen [1], the affinity, expressed as Kd, was 31 nM; the koff was found to be 0.0029 s⁻¹; the kon turned out to be 95000 M⁻¹ s⁻¹. Further, the “Ratio: KD with MTX / KD without MTX” value with human CD33 antigen [2] turned out to be 4.7. For the same molecule, in the assay with human CD33 antigen [3], the Kd was 144 nM, the dissociation rate constant (koff) stood at 0.025 s⁻¹ and the kon turned out to be 170000 M⁻¹ s⁻¹.

B5: P02_C02 scFv-Fc fusion (scFv, V domains shown)
VH: QVQLVESGGGLVQAGGSLRLSCAASRRSSRSWAMHWVRQAPGKGLEWVAVISYDGRLKYYADSVKGRFTISRDNAEYLVYLQMNSLRAEDTAVYYCAAEGGMGLDPWGQGTLVTVSS
VL: B1 VL with S28T, K31S, G50A, T53N, Q55H
notes: Tested as scFv-Fc fusion
On to B5, for which, in the assay with human CD33 antigen [1], binding was characterised by a dissociation constant (Kd) of 213 nM, the koff amounted to 0.02 s⁻¹ and the kon is 92000 M⁻¹ s⁻¹. Further, the “Ratio: KD with MTX / KD without MTX” value in the assay with human CD33 antigen [2] amounted to 1. In the assay with human CD33 antigen [3], this molecule gave a Kd of 221 nM, a koff of 0.025 s⁻¹ and an on-rate constant (kon) of 110000 M⁻¹ s⁻¹.

B6: P04_C09 scFv-Fc fusion (scFv, V domains shown)
VH: QVQLVESGGGLVQAGGSLRLSCAASRRSSRSWAMHWVRQAPGKGLEWVAVISYDGRLKYYADSVKGRFTISRDNAEYLVYLQMNSLRAEDTAVYYCAAEANESDSGGIDVWGQGTLVTVSS
VL: B1 VL with S28T, S30G, K31G, G50A, T53S, S91G, T96A
notes: Tested as scFv-Fc fusion
In the assay with human CD33 antigen [1], B6 yielded a Kd of 12 nM, a koff of 0.0018 s⁻¹ and an on-rate (kon) of 160000 M⁻¹ s⁻¹. For the same molecule, in the assay with human CD33 antigen [2], the “Ratio: KD with MTX / KD without MTX” value was 17.7. Besides, in the assay with human CD33 antigen [3], binding was characterised by a dissociation constant (Kd) of 205 nM, the off-rate constant (koff) was found to be 0.0089 s⁻¹ and the kon amounted to 44000 M⁻¹ s⁻¹.

B7: P02_A10 scFv-Fc fusion (scFv, V domains shown)
VH: QVQLVESGGGLVQAGGSLRLSCAASRRSSRSWAMHWVRQAPGKGLEWVAVISYDGRLKYYADSVKGRFTISRDNAEYLVYLQMNSLRAEDTAVYYCAAESEWDTGGFDVWGQGTLVTVSS
VL: B1 VL with S30G, K31S, G50S, A51S, T53N, S93T
notes: Tested as scFv-Fc fusion
With B7, in the assay with human CD33 antigen [1], the Kd is 523 nM, the koff turned out to be 0.044 s⁻¹ and the on-rate constant (kon) was determined as 84000 M⁻¹ s⁻¹. Further, in the assay with human CD33 antigen [2], the “Ratio: KD with MTX / KD without MTX” value is more than 17.3.

B8: P03_G12 scFv-Fc fusion (scFv, V domains shown)
VH: B7 VH with E99D, S100P, E101T, W102E, D103G, T104W, G105S, G106Y, F107L, V109Y
VL: B1 VL with S28G, K31S, T53R, S91G
notes: Tested as scFv-Fc fusion
On to B8, for which, in the assay with human CD33 antigen [1], the Kd came out at 132 nM, the koff stood at 0.0094 s⁻¹ and the kon stood at 71000 M⁻¹ s⁻¹. The “Ratio: KD with MTX / KD without MTX” value with human CD33 antigen [2] was more than 83.

B9: P03_H04 scFv-Fc fusion (scFv, V domains shown)
VH: B1 VH with E99D, R100P, G101H, L104Y, D105G, N107G, V108P, L110F, I112Y
VL: QSVLTQPPSASGTPGQRVTISCSGSSSNIGSNYVYWYQQLPGTAPKLLIYRSNQRPSGVPDRFSGSKSGTSASLAISGLRSEDEADYYCAAWDDTLSAVVFGTGTKLTVL
notes: Tested as scFv-Fc fusion
In the assay with human CD33 antigen [1], B9 registered an equilibrium dissociation constant (Kd) of 366 nM, a koff of 0.026 s⁻¹ and a kon of 72000 M⁻¹ s⁻¹. For the same molecule, the “Ratio: KD with MTX / KD without MTX” value in the assay with human CD33 antigen [2] was more than 43.

B10: P16_E06 scFv-Fc fusion (scFv, V domains shown)
VH: QVQLVESGGGLVQAGGSLRLSCAASRRSSRSWAMHWVRQAPGKGLEWVAVISYDGRLKYYADSVKGRFTISRDNAEYLVYLQMNSLRAEDTAVYYCAAEGGDYPGTSDGGLDIWGQGTLVTVSS
VL: B1 VL with K31N, T53S, S94A
notes: Tested as scFv-Fc fusion
In the assay with human CD33 antigen [1], B10 returned a Kd of 92 nM, an off-rate constant (koff) of 0.011 s⁻¹ and an on-rate constant (kon) of 120000 M⁻¹ s⁻¹. Further, the “Ratio: KD with MTX / KD without MTX” value with human CD33 antigen [2] is 12.7. In the assay with human CD33 antigen [3], the Kd worked out at 1170 nM, the koff is 0.087 s⁻¹ and the kon amounted to 75000 M⁻¹ s⁻¹.

B11: P02_E08 scFv-Fc fusion (scFv, V domains shown)
VH: B7 VH with E99S, S100D, E101Y, W102D, D103G, T104G, G106L, V109L
VL: B9 VL with S26N, S31D, Y35H, R51M, S52N, A91T, T95S, A98G
notes: Tested as scFv-Fc fusion
With B11, in the assay with human CD33 antigen [1], binding was put at a Kd of 211 nM, the koff amounted to 0.01 s⁻¹ and the kon came to 47000 M⁻¹ s⁻¹. For the same molecule, in the assay with human CD33 antigen [2], the “Ratio: KD with MTX / KD without MTX” value is more than 3.4.

B12: P02_D09 scFv-Fc fusion (scFv, V domains shown)
VH: QVQLVESGGGLVQAGGSLRLSCAASRRSSRSWAMHWVRQAPGKGLEWVAVISYDGRLKYYADSVKGRFTISRDNAEYLVYLQMNSLRAEDTAVYYCAAEEGDGGFFDYWGQGTLVTVSS
VL: QSVLTQPPSASGTPGQRVTISCSGSSSNIGSNYVNWYQQLPGTAPKLLIYRNNERPSGVPDRFSGSKSGTSASLAISGLRSEDEADYYCAAWDGSLSGRGVFGTGTKLTVL
notes: Tested as scFv-Fc fusion
In the case of B12, in the assay with human CD33 antigen [1], the dissociation constant (Kd) turned out to be 456 nM, the koff is 0.018 s⁻¹ and the association rate constant (kon) is 40000 M⁻¹ s⁻¹. Also, the “Ratio: KD with MTX / KD without MTX” value with human CD33 antigen [2] is more than 20.4.

B13: P02_B03 scFv-Fc fusion (scFv, V domains shown)
VH: QVQLVESGGGLVQAGGSLRLSCAASRRSSRSWAMHWVRQAPGKGLEWVAVISYDGRLKYYADSVKGRFTISRDNAEYLVYLQMNSLRAEDTAVYYCAADQDVGSVGNYYGNGMDVWGQGTLVTVSS
VL: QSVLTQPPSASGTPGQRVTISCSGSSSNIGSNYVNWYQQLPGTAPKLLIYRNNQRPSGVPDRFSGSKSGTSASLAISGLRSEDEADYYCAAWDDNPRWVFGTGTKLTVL
notes: Tested as scFv-Fc fusion
In the assay with human CD33 antigen [1], B13 registered a Kd of 170 nM, a koff of 0.023 s⁻¹ and a kon of 140000 M⁻¹ s⁻¹. For the same molecule, the “Ratio: KD with MTX / KD without MTX” value with human CD33 antigen [2] is more than 2.

B14: P01_F05 scFv-Fc fusion (scFv, V domains shown)
VH: B3 VH with A99G, D100P, W101D, Y102R, S103W, G104A, G106Y, L109F, I111V
VL: DIQMTQSPSSLSASVGDRVTITCRASQTINTHLNWYQQKPGKAPKLLIYGASNLQGGVPSRFSGSGSGTDFTLTISSLQPEDFATYYCQQSYSTPLTFGQGTKVEIK
notes: Tested as scFv-Fc fusion
In the assay with human CD33 antigen [1], B14 gave a Kd of 143 nM, an off-rate constant (koff) of 0.01 s⁻¹ and a kon of 71000 M⁻¹ s⁻¹. Also, in the assay with human CD33 antigen [2], the “Ratio: KD with MTX / KD without MTX” value was more than 92.5.

B15: P01_C05 scFv-Fc fusion (scFv, V domains shown)
VH: B10 VH with G100Q, G101W, D102G, Y103T, P104N, G105D, T106G, S107P, L111M, I113Y
VL: B14 VL with N30G, T31S, A51T, G56S, T94S
notes: Tested as scFv-Fc fusion
B15: in the assay with human CD33 antigen [1], binding was characterised by a dissociation constant (Kd) of 86 nM, the koff came out at 0.0066 s⁻¹ and the kon came to 76000 M⁻¹ s⁻¹. Moreover, the “Ratio: KD with MTX / KD without MTX” value with human CD33 antigen [2] came out at 0.5. In the assay with human CD33 antigen [3], this molecule came in with a Kd of 44.7 nM, a koff of 0.0045 s⁻¹ and a kon of 100000 M⁻¹ s⁻¹.
